According to paper PMC9482650, “Quantitative fragmentomics allow affinity mapping of interactomes” (Nature Communications, 2022):
Blank lines part the entries; values can stand above or below the binder they belong to.

What was measured:
Experiment in all cases: holdup assay
Set-up in all cases: key: below the threshold = too weak to quantify, mostly under pKd 3.1 to 4
Details in all cases: plain residues with an end cap or a label only (N-terminal biotin on a linker: ado-ado)
AHNAK1, Q09666 = target: AHNAK1, Q09666
APBA1_2, Q02410 = target: T1, APBA1_2, Q02410
T1 sequence (Q02410 742-832, limits assumed, looked up): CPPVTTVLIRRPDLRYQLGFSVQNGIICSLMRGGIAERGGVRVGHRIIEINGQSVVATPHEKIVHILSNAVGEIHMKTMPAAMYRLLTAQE

CARD11, Q9BXL7 = target: T2, CARD11, Q9BXL7
T2 sequence (Q9BXL7 662-765, limits assumed, looked up): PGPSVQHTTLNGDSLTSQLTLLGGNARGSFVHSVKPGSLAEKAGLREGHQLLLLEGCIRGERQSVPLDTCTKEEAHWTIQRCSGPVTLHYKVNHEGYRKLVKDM

DLG1_3, Q12959 = target: DLG1_3, Q12959
DLG2_2, Q15700 = target: DLG2_2, Q15700
DLG5_1, Q8TDM6 = target: DLG5_1, Q8TDM6
GRASP, Q7Z6J2 = target: GRASP, Q7Z6J2
GRIP2_6, Q9C0E4 = target: GRIP2_6, Q9C0E4
IL16_1, Q14005 = target: IL16_1, Q14005
IL16_4, Q14005 = target: IL16_4, Q14005
Inadl_3, Q8NI35 = target: Inadl_3, Q8NI35
LDB3, O75112 = target: LDB3, O75112
LIMK2, P53671 = target: LIMK2, P53671
LNX1_1, Q8TBB1 = target: LNX1_1, Q8TBB1
LRRC7, Q96NW7 = target: T3, LRRC7, Q96NW7
T3 sequence (Q96NW7 1440-1537, limits assumed, looked up): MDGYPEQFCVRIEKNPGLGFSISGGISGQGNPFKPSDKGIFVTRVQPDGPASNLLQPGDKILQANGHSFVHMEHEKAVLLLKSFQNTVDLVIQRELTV

MAGI2_3, Q86UL8 = target: MAGI2_3, Q86UL8
MPP6, Q9NZW5 = target: T4, MPP6, Q9NZW5
T4 sequence (Q9NZW5 125-219, limits assumed, looked up): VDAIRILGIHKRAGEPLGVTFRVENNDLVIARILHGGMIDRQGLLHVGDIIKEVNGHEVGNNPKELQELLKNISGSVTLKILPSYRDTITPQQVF

NHERF3_1, Q5T2W1 = target: T5, NHERF3_1, Q5T2W1
T5 sequence (Q5T2W1 4-100, limits assumed, looked up): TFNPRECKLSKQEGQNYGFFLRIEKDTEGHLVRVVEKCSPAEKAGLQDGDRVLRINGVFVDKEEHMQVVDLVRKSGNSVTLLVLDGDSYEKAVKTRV

NHERF3_3, Q5T2W1 = target: T6, NHERF3_3, Q5T2W1
T6 sequence (Q5T2W1 238-333, limits assumed, looked up): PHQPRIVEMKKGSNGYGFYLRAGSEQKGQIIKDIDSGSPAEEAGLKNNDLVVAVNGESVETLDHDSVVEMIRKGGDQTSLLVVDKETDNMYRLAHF

NHERF4_4, Q86UT5 = target: NHERF4_4, Q86UT5
PARD3B_1, Q8TEW8 = target: T7, PARD3B_1, Q8TEW8
T7 sequence (Q8TEW8 196-299, limits assumed, looked up): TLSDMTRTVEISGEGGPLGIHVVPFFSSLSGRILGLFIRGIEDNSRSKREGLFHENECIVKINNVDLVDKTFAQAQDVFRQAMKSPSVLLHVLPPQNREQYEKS

PICK1, Q9NRD5 = target: PICK1, Q9NRD5
PTPN3, P26045 = target: PTPN3, P26045
SCRIB_1, Q14160 = target: SCRIB_1, Q14160
SCRIB_3, Q14160 = target: SCRIB_3, Q14160
SNTG1, Q9NSN8 = target: T8, SNTG1, Q9NSN8
T8 sequence (Q9NSN8 52-150, limits assumed, looked up): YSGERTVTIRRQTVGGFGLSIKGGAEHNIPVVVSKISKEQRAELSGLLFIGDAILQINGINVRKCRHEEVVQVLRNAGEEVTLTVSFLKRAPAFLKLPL

SNTG2, Q9NY99 = target: T9, SNTG2, Q9NY99
T9 sequence (Q9NY99 68-166, limits assumed, looked up): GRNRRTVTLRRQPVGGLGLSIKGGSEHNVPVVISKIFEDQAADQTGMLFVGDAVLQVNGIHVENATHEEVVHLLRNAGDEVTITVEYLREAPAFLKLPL

TJP1_3, Q07157 = target: TJP1_3, Q07157
TJP1_3, Q07157, sequence (Q07157 416-512): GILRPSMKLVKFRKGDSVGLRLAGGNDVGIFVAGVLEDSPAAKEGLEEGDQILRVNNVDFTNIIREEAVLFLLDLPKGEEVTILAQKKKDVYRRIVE

LDB3, O75112, sequence (O75112 1-94): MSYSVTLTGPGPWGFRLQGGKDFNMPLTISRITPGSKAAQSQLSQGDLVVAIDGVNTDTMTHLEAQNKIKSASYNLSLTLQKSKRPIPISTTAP
NHERF4_4, Q86UT5, sequence (Q86UT5 464-550): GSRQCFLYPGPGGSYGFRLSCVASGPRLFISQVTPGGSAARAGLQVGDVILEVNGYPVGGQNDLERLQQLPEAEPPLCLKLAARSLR
SCRIB_3, Q14160, sequence (Q14160 999-1103): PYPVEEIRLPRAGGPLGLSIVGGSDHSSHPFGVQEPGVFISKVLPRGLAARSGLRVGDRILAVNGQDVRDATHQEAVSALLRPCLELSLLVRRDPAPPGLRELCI
PTPN3, P26045, sequence (P26045 505-587): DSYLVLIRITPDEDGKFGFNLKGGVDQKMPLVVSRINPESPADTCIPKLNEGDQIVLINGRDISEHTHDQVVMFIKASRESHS
DLG5_1, Q8TDM6, sequence (Q8TDM6 617-713): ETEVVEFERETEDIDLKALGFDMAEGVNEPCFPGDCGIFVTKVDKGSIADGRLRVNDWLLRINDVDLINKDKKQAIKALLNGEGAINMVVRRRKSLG
AHNAK1, Q09666, sequence (Q09666 4-100): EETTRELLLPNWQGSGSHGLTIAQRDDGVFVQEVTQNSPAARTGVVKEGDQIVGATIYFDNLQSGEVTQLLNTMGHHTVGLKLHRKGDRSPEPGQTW
DLG1_3, Q12959, sequence (Q12959 457-571): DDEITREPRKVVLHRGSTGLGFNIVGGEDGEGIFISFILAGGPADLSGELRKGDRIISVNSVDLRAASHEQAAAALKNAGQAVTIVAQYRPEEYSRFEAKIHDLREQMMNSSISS
GRIP2_6, Q9C0E4, sequence (Q9C0E4 648-740): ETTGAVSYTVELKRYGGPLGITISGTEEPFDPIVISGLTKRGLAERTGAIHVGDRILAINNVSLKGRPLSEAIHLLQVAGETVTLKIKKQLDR
PICK1, Q9NRD5, sequence (Q9NRD5 17-115): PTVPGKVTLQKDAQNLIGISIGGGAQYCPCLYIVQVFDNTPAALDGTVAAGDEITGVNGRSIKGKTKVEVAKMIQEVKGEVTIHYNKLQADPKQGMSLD
LNX1_1, Q8TBB1, sequence (Q8TBB1 261-371): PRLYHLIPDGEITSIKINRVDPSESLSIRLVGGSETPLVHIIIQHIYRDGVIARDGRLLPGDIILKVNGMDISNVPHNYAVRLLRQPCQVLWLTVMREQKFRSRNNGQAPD
MAGI2_3, Q86UL8, sequence (Q86UL8 600-682): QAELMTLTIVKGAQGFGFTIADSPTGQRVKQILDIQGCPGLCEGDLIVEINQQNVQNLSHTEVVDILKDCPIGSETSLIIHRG
IL16_1, Q14005, sequence (Q14005 210-306): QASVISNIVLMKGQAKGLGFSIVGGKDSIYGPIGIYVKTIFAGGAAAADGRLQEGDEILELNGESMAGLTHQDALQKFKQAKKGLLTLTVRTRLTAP
GRASP, Q7Z6J2, sequence (Q7Z6J2 96-193): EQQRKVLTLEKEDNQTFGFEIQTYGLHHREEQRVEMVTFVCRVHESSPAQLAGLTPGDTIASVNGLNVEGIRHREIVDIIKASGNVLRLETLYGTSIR
IL16_4, Q14005, sequence (Q14005 1229-1329): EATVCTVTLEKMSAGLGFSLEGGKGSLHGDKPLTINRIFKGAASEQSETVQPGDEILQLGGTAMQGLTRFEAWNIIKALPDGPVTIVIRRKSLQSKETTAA
DLG2_2, Q15700, sequence (Q15700 189-283): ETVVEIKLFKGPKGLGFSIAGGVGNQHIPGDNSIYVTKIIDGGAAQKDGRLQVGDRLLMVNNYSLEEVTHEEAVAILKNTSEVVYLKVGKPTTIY
LIMK2, P53671, sequence (P53671 143-248): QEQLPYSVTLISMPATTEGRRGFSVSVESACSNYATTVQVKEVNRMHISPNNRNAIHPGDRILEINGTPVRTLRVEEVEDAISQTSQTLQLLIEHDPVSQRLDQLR
Inadl_3, Q8NI35, sequence (Q8NI35 359-469): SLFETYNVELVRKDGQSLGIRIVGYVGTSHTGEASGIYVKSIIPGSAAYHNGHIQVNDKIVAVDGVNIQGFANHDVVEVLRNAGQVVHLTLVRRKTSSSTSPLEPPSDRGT
SCRIB_1, Q14160, sequence (Q14160 718-814): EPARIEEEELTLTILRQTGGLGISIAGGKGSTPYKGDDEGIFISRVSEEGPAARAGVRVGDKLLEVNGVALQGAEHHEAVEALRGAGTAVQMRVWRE

- pKd (AHNAK1, Q09666): below the threshold
- pKd (APBA1_2, Q02410): 3.63
- pKd (CARD11, Q9BXL7): below the threshold
- pKd (DLG1_3, Q12959): below the threshold
- pKd (DLG2_2, Q15700): 3.74
- pKd (DLG5_1, Q8TDM6): below the threshold
- pKd (GRASP, Q7Z6J2): 4.47
- pKd (GRIP2_6, Q9C0E4): below the threshold
- pKd (IL16_1, Q14005): 4.02
- pKd (IL16_4, Q14005): 3.76
- pKd (Inadl_3, Q8NI35): below the threshold
- pKd (LDB3, O75112): below the threshold
- pKd (LIMK2, P53671): below the threshold
- pKd (LNX1_1, Q8TBB1): below the threshold
- pKd (LRRC7, Q96NW7): below the threshold
- pKd (MAGI2_3, Q86UL8): below the threshold
- pKd (MPP6, Q9NZW5): below the threshold
- pKd (NHERF3_1, Q5T2W1): below the threshold
- pKd (NHERF3_3, Q5T2W1): below the threshold
- pKd (NHERF4_4, Q86UT5): below the threshold
- pKd (PARD3B_1, Q8TEW8): below the threshold
- pKd (PICK1, Q9NRD5): below the threshold
- pKd (PTPN3, P26045): below the threshold
- pKd (SCRIB_1, Q14160): below the threshold
- pKd (SCRIB_3, Q14160): below the threshold
- pKd (SNTG1, Q9NSN8): below the threshold
- pKd (SNTG2, Q9NY99): below the threshold
- pKd (TJP1_3, Q07157): below the threshold
B1: LPAR1, Q92633 (peptide)
chain: GVHSNDHSVV

- pKd (AHNAK1, Q09666): below the threshold
- pKd (APBA1_2, Q02410): below the threshold
- pKd (CARD11, Q9BXL7): below the threshold
- pKd (DLG1_3, Q12959): below the threshold
- pKd (DLG2_2, Q15700): below the threshold
- pKd (DLG5_1, Q8TDM6): below the threshold
- pKd (GRASP, Q7Z6J2): below the threshold
- pKd (GRIP2_6, Q9C0E4): below the threshold
- pKd (IL16_1, Q14005): below the threshold
- pKd (IL16_4, Q14005): below the threshold
- pKd (Inadl_3, Q8NI35): below the threshold
- pKd (LDB3, O75112): below the threshold
- pKd (LIMK2, P53671): below the threshold
- pKd (LNX1_1, Q8TBB1): below the threshold
- pKd (LRRC7, Q96NW7): below the threshold
- pKd (MAGI2_3, Q86UL8): below the threshold
- pKd (MPP6, Q9NZW5): 3.58
- pKd (NHERF3_1, Q5T2W1): 3.68
- pKd (NHERF3_3, Q5T2W1): below the threshold
- pKd (NHERF4_4, Q86UT5): below the threshold
- pKd (PARD3B_1, Q8TEW8): below the threshold
- pKd (PICK1, Q9NRD5): below the threshold
- pKd (PTPN3, P26045): 4.01
- pKd (SCRIB_1, Q14160): 3.68
- pKd (SCRIB_3, Q14160): 3.88
- pKd (SNTG1, Q9NSN8): 3.66
- pKd (SNTG2, Q9NY99): 3.61
- pKd (TJP1_3, Q07157): below the threshold
B2: SLCO1B1, Q9Y6L6 (peptide)
chain: SAGADSETHC
